Assays:
[1] = target: T1, Bdf1(372-554) (in the fused complex for cryo-EM) (S. pombe, UniProt Q9Y7N0 372-554); assay: cryo-EM structure
T1 sequence (looked up): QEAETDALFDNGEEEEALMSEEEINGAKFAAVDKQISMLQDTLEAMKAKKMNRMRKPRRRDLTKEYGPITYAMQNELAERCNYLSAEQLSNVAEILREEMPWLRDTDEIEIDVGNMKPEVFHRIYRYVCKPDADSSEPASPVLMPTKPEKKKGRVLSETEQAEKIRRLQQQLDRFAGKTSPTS

cryo-EM structure = target: the molecule itself; assay: cryo-EM structure

binding result [1]: binds
B1: Tdk1(211-357) (in the fused complex for cryo-EM) (domain or fragment, S. pombe, UniProt O74876 211-357, looked up)
chain: MDEWRKSTDEWRKSTDERLENLLNIVREILDVQRDMRNDLSNLTRKVDRMDMRLSRNNNMIMRSFAQPITEVPFFNGDIPDPNLPRITRIEDIDSLSEENCTRYLKGYGVSYDENDQSLWKRQLAKAVGLTAAYDESYTFSPFSSSE
stoichiometry N (cryo-EM structure): 6
